Experimental data from patent US20230381328A1, “COMPOUND FOR THE PREVENTION OR TREATMENT OF MYASTHENIA GRAVIS” (ABLEVIA BIOTECH GMBH, priority 2020, published 2023).
Where no end group is shown, it is not given here.

B1: …, cyclic mimotope (peptide)
peptide: QLRWNPADY
modifications: also: cyclic peptide, ring type and places not given here
B2: …, cyclic mimotope (peptide)
peptide: GGSLRWNPADR
modifications: also: cyclic peptide, mode of cyclisation not given here
B3: LRGNPAD, cyclic mimotope (peptide)
peptide: LRGNPAD
modifications: also: cyclic peptide, mode of cyclisation not given here
B4: …, cyclic mimotope (peptide)
peptide: RLLWNPADY
modifications: also: cyclic peptide, ring type and places not given here
B5: RWNPADF, cyclic mimotope (peptide)
peptide: RWNPADF
modifications: also: cyclic peptide, ring type and places not given here
B6: …, cyclic mimotope (peptide)
peptide: SLRWNPADYHG
modifications: also: cyclic peptide, mode of cyclisation not given here
B7: …, cyclic mimotope (peptide)
peptide: VRLRLNPADYG
modifications: also: cyclic peptide, mode of cyclisation not given here
B8: …, cyclic mimotope (peptide)
peptide: GSLRWNPADYQ
modifications: also: cyclic peptide, mode of cyclisation not given here
B9: …, cyclic mimotope (peptide)
peptide: GSLRFNPADYG
modifications: also: cyclic peptide, mode of cyclisation not given here
B10: …, cyclic mimotope (peptide)
peptide: RLRGNPADYGG
modifications: also: cyclic peptide, ring type and places not given here
B11: LRFNPAD, cyclic mimotope (peptide)
peptide: LRFNPAD
modifications: also: cyclic peptide, mode of cyclisation not given here
B12: …, cyclic mimotope (peptide)
peptide: GSLRWNPADYN
modifications: also: cyclic peptide, mode of cyclisation not given here
B13: DVRLRONPADY, cyclic mimotope (peptide)
peptide: DVRLRQNPADY
modifications: not fully specified; cyclic peptide
B14: …, cyclic mimotope (peptide)
peptide: LRWNPADYGGF
modifications: also: cyclic peptide, mode of cyclisation not given here
B15: …, cyclic mimotope (peptide)
peptide: SLYWNPADY
modifications: also: cyclic peptide, mode of cyclisation not given here
B16: …, cyclic mimotope (peptide)
peptide: RLRWNPADYGP
modifications: also: cyclic peptide, ring type and places not given here
B17: …, cyclic mimotope (peptide)
peptide: RLRPNPADY
modifications: also: cyclic peptide, ring type and places not given here
B18: …, cyclic mimotope (peptide)
peptide: DVRLRYNPADY
modifications: also: cyclic peptide, mode of cyclisation not given here
B19: …, cyclic mimotope (peptide)
peptide: GSLRWNPADYT
modifications: also: cyclic peptide, mode of cyclisation not given here
B20: …, cyclic mimotope (peptide)
peptide: VRLRGNPAD
modifications: also: cyclic peptide, mode of cyclisation not given here
B21: …, cyclic mimotope (peptide)
peptide: GSLRWNPADYD
modifications: also: cyclic peptide, mode of cyclisation not given here
B22: …, cyclic mimotope (peptide)
peptide: VRLRWNPADYS
modifications: also: cyclic peptide, mode of cyclisation not given here
B23: …, cyclic mimotope (peptide)
peptide: VRLRINPADYG
modifications: also: cyclic peptide, mode of cyclisation not given here
B24: …, cyclic mimotope (peptide)
peptide: LRWNPADYPGI
modifications: also: cyclic peptide, mode of cyclisation not given here
B25: WNPDDYR, cyclic mimotope (peptide)
peptide: WNPDDYR
modifications: also: cyclic peptide, mode of cyclisation not given here
B26: …, cyclic mimotope (peptide)
peptide: TLRWNPADY
modifications: also: cyclic peptide, mode of cyclisation not given here
B27: …, cyclic mimotope (peptide)
peptide: GGSLRLNPADY
modifications: also: cyclic peptide, mode of cyclisation not given here
B28: …, cyclic mimotope (peptide)
peptide: RLRTNPADY
modifications: also: cyclic peptide, ring type and places not given here
B29: …, cyclic mimotope (peptide)
peptide: RSRWNPADY
modifications: also: cyclic peptide, ring type and places not given here
B30: …, cyclic mimotope (peptide)
peptide: RLHWNPADY
modifications: also: cyclic peptide, ring type and places not given here
B31: …, cyclic mimotope (peptide)
peptide: LRPNPADYG
modifications: also: cyclic peptide, mode of cyclisation not given here
B32: RLRONPADY, cyclic mimotope (peptide)
peptide: RLRQNPADY
modifications: not fully specified; cyclic peptide
B33: NPADYGN, cyclic mimotope (peptide)
peptide: NPADYGN
modifications: also: cyclic peptide, mode of cyclisation not given here
B34: …, cyclic mimotope (peptide)
peptide: RLRWNPADYGS
modifications: also: cyclic peptide, ring type and places not given here
B35: …, cyclic mimotope (peptide)
peptide: DVRLRWNPSDY
modifications: also: cyclic peptide, mode of cyclisation not given here
B36: …, cyclic mimotope (peptide)
peptide: LRWNPADYR
modifications: also: cyclic peptide, mode of cyclisation not given here
B37: …, cyclic mimotope (peptide)
peptide: RLRWNPADYHG
modifications: also: cyclic peptide, ring type and places not given here

Target: monoclonal antibody mAB 198
Experiment: peptide microarray, fluorescence, cyclic peptide

Row | Binder | relative signal [%]
1 | B1 | 10.7
2 | B2 | 10.3
3 | B3 | 9.1
4 | B4 | 9.7
5 | B5 | 9.1
6 | B6 | 8.7
7 | B7 | 9.7
8 | B8 | 9.7
9 | B9 | 10.4
10 | B10 | 9
11 | B11 | 8.6
12 | B12 | 10
13 | B13 | 8.8
14 | B14 | 10.3
15 | B15 | 9.4
16 | B16 | 10
17 | B17 | 9.8
18 | B18 | 10.5
19 | B19 | 8.7

Row | Binder | relative signal [%]
20 | B20 | 9.9
21 | B21 | 10.2
22 | B22 | 10.5
23 | B23 | 10
24 | B24 | 8.9
25 | B25 | 9
26 | B26 | 9.9
27 | B27 | 8.5
28 | B28 | 8.6
29 | B29 | 9.8
30 | B30 | 10.8
31 | B31 | 10
32 | B32 | 10.6
33 | B33 | 8.7
34 | B34 | 9.7
35 | B35 | 10.5
36 | B36 | 10.3
37 | B37 | 10.1
